Laboratory results: article PMC4644993, “The second virial coefficient as a predictor of protein aggregation propensity: A self-interaction chromatography study” (European Journal of Pharmaceutics and Biopharmaceutics, 2015)

Target: the molecule itself
Assay: self-interaction chromatography; the same protein immobilised on Toyopearl particles (surface coverage ~30-40%) and injected (5-15 mg/mL, 10 uL, 0.5 mL/min); b2 from first-moment retention; increasing ionic strength of different sodium salts; 20 mM sodium phosphate pH 7.0 for lactoferrin, catalase and con A, 50 mM sodium acetate pH 4.5 for lysozyme

B1: catalase from bovine liver (enzyme, UniProt P00432 1-527, looked up)
chain: MADNRDPASDQMKHWKEQRAAQKPDVLTTGGGNPVGDKLNSLTVGPRGPLLVQDVVFTDEMAHFDRERIPERVVHAKGAGAFGYFEVTHDITRYSKAKVFEHIGKRTPIAVRFSTVAGESGSADTVRDPRGFAVKFYTEDGNWDLVGNNTPIFFIRDALLFPSFIHSQKRNPQTHLKDPDMVWDFWSLRPESLHQVSFLFSDRGIPDGHRHMNGYGSHTFKLVNANGEAVYCKFHYKTDQGIKNLSVEDAARLAHEDPDYGLRDLFNAIATGNYPSWTLYIQVMTFSEAEIFPFNPFDLTKVWPHGDYPLIPVGKLVLNRNPVNYFAEVEQLAFDPSNMPPGIEPSPDKMLQGRLFAYPDTHRHRLGPNYLQIPVNCPYRARVANYQRDGPMCMMDNQGGAPNYYPNSFSAPEHQPSALEHRTHFSGDVQRFNSANDDNVTQVRTFYLKVLNEEQRKRLCENIAGHLKDAQLFIQKKAVKNFSDVHPEYGSRIQALLDKYNEEKPKNAVHTYVQHGSHLSAREKANL
notes: catalase from bovine liver, MW 250 kD, pI 5.4; Immobilised copy is coupled to Toyopearl AF-Amino-650M particles with EDC and NHS; source: bought: Sigma Aldrich (C9322)
  binding result: binds
